Experiment [1] has as its target streptavidin (UniProt P22629). Nature of the experiment: release from M280 Streptavidin Dynabeads by 5 mM biotin or bis-biotin, fluorescence of supernatant.
For experiment [2], the target named is streptavidin (UniProt P22629). Kind of experiment: release from streptavidin beads by biotin.
In experiment [3] the target is streptavidin (UniProt P22629). Kind of experiment: BLI (Octet), streptavidin biosensor tips, conjugate in solution, 25 C.

Broadly, the Kd is the equilibrium constant for the complex coming apart. A word on the koff: it is a measure of how fast the partners let go of each other. The term kon denotes the second-order rate constant of association. High values mean faster complex formation, low ones slower complex formation.

Sequence of streptavidin (P22629 37-163 limits assumed): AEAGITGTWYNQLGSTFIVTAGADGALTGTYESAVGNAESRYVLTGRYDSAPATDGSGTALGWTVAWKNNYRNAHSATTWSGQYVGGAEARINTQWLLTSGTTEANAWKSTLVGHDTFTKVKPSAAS

“18-Ab (goat anti-mouse IgG linked to biotin derivative 18) (antibody)” gave a Detachment with streptavidin [1] of 85%.

As to Biotin-Ab (antibody), the Detach. with streptavidin [2] was 0%. Moreover, in the experiment with streptavidin [3], the Kd was 0.00595 pM, the koff amounted to 1.43e-07 s⁻¹ and the kon came to 2.41e+07 M⁻¹ s⁻¹.

Turning to “DSB-X-Ab (goat anti-mouse IgG linked to DSB-X) (antibody)”, the Detachment with streptavidin [1] was found to be 16%.

(Values after patent US20170174700A1.)
